Assay in all cases: sucrose density gradient sedimentation
The target in test [1] is S71P mutant hemagglutinin (X:31 strain, HA2 S71P) (influenza virus, X:31 strain) (UniProt P03437).
Test [2] concerns the target V55P/S71P double proline mutant hemagglutinin (X:31 strain, HA2 V55P and S71P) (influenza virus, X:31 strain) (UniProt P03437).
Test [3] concerns the target L80P mutant hemagglutinin (X:31 strain, HA2 L80P) (influenza virus, X:31 strain) (UniProt P03437).

With “S71P mutant hemagglutinin (X:31 strain, HA2 S71P) (from UniProt P03437 17-344) (natural protein)”, in test [1], the stoichiometry N – broadly, the number of molecules, sites or subunits per partner or assembly – turned out to be 3.

Consider “V55P/S71P double proline mutant hemagglutinin (X:31 strain, HA2 V55P and S71P) (from UniProt P03437 17-344) (natural protein)”, for which the stoichiometry N in test [2] was 3.

“L80P mutant hemagglutinin (X:31 strain, HA2 L80P) (from UniProt P03437 17-344) (natural protein)” displayed a stoichiometry N in test [3] of 3.

Source of the values: paper PMC2132786.
